Measured values: patent US7611693B2, “Mechanism-based targeted pancreatic beta cell imaging and therapy” (Board of Regents, The Univerisity of Texas System, priority 2003, dated 2009)

What was measured:
[1] = Animal studies: acute toxicity at the given doses; type: in vivo
Description: (§1) The present disclosure addresses at least in part some deficiencies in the prior art by providing novel DTPA-antidiabetic conjugates useful for imaging beta-cell function. Through binding of radiolabeled conjugates, such as ^99mTc-DTPA-antidiabetic conjugates, for example, to pancreatic beta receptors, detectable by gamma scintigraphy, pancreatic function is monitored. Four DTPA-antidiabetic conjugates have been synthesized and evaluated. […] These agents are labeled with isotopes in order to assess beta cell function in diabetic or insulinoma patients both pre- and post-treatment. These compositions and methods are useful to provide early diagnosis as well as monitoring of response of pancreatic disease during treatment.

pancreas [2] = details: rat, in vivo, iv
Description: FIG. 47 is a graphical representation comparing pancreas uptake for ^99mTc-DTPA and ^99mTc-DTPA-NGN in breast tumor-bearing rats (n=3/time interval, 20 μCi, IV, p=0.11, 0.05, and 0.01).
FIG. 48 is a graphical representation of pancreas to muscle count density ratio of ^99mTc-DTPA and ^99mTc-NGN in breast tumor bearing rats (n=3/time interval, μCi/rat, IV, p=0.19, 0.19, and 0.029).
Male (n=4) New Zealand white rabbits (Raynichols Rabbitry, Lumberton, Tex.) were inoculated with VX-2 cells (rabbit driven mammary squamous cell carcinoma). At day 14 post-inoculation, scintigraphic imaging studies were conducted with ^99mTc-DTPA-NGN (1 mCi, iv). Computer outlined region of interest was used to analyze target-to-nontarget ratios.

pancreatic beta cells = assay: Animal studies: selective imaging of pancreatic beta cells; type: in vivo
Description: as §1

pancreas [3] = assay: Scintigraphic imaging in rodents (planar gamma imaging); type: in vivo; details: normal rat and 13762 tumor-bearing rats, 300 μCi via tail vein, FIGS. 36-44
Description: Scintigraphic imaging in rodents was conducted as follows:
Female Fischer 344 rates (150-175 g) (Harlan Sprague-Dawley, Inc., Indianapolis, Ind.) were inoculated subcutaneously in the right leg with breast cancer cells (10^6 cells/rat) from the 13762 NF cell line (known as DMBA-induced breast cancer cell line). Scintigraphic imaging was serially performed on day 14 after inoculation. Planar images were obtained at 0.5, 1 and 2 hours after injection of 300 μCi of ^99mTc-DTPA-NGN or ^99mTc-DTPA-GLP via tail vein. Control groups were given ^99mTc-DTPA. Imaging was conducted with a gamma camera from Digirad (2020tc Imager, San Diego, Calif.) equipped with a low-energy parallel-hole collimator. The field of view is 20 cm×20 cm with an edge of 1.3 cm. The intrinsic spatial resolution is 3 mm and the matrix is 64×64. The system is designed for a planar image with sensitivity of 56 counts/second (cps)/MBq and spatial resolution of 7.6 mm.

## CC(C)[C@H]1CC[C@H](C(=O)N[C@H](Cc2ccccc2)C(=O)NCCNC(=O)CN(CCN(CCN(CC(=O)O)CC(=O)NCCNC(=O)[C@@H](Cc2ccccc2)NC(=O)[C@H]2CC[C@H](C(C)C)CC2)CC(=O)O)CC(=O)O)CC1 [DTPA-nateglinide, DTPA-Nateglinide]
[1]
  acute toxicity: no acute toxicity

## CC(C)[C@H]1CC[C@H](C(=O)N[C@H](Cc2ccccc2)C(=O)NCCNC(=O)CN(CCN(CCN(CC(=O)O)CC(=O)NCCNC(=O)[C@@H](Cc2ccccc2)NC(=O)[C@H]2CC[C@H](C(C)C)CC2)CC(=O)O)CC(=O)O)CC1 [^99mTc-DTPA-nateglinide, metal not drawn]
Pancreas [2]
  pancreas uptake compared with control groups: pancreas uptake was higher than control groups

## DTPA-Glipizide
Pancreatic beta cells
  selective imaging of pancreatic beta cells: able to selectively image pancreatic beta cells

## ^99mTc-DTPA-glipizide
Pancreas [3]
  visualization of pancreas by planar scintigraphy: pancreas could be visualized
